# Publication PMC13038415 (Nature Chemical Biology, 2026)
# Changes are numbered by the printed parent chain. Numbers in names are those of the source. Where “and” joins values, the source holds several entries; their conditions need not be identical. Equal entries are not always repeated. Where two headings read alike, the source gives them in different places.
# B1: Pac1 (full-length; yeast homolog of Lis1) (natural protein)
# chain: MTNWQQQLPLTDTQKNELDKSVLRYLNWNYKQTVRHEHAQDYESVRHAIVTLSGFLLQESVDRQEFISNNDTSNESMVDIDELLLPKKWNSIVRLQKKIIELEQNTETLVSQIKDLNTQVSELAQFKPTTSNGTSAHNVLKWIPRNLPSCLINVESSVTSVKLHPNLPIVFVATDHGKLYAFDLFNYTIPLASLQSHTKAITSMDVLFTNYTNSSKKNYLVIVTASKDLQIHVFKWVSEECKFQQIRSLLGHEHIVSAVKIWQKNNDVHIASCSRDQTVKIWDFHNGWSLKTFQPHSQWVRSIDVLGDYIISGSHDTTLRLTHWPSGNGLSVGTGHEFPIEKVKFIHFIEDSPEIRFRTPSTDRYKNWGMQYCVSASRDRTIKIWEIPLPTLMAHRAPIPNPTDSNFRCVLTLKGHLSWVRDISIRGQYLFSCADDKSVRCWDLNTGQCLHVWEKLHTGFVNCLDLDVDFDSNVTPRQMMVTGGLDCKSNVFMR
# B2: Pac1 site^linker mutant (T403A, S405A, N406A, R320A, V332A) (natural protein)
# chain: B1 chain with R320A, V332A, T403A, S405A, N406A
# Legend:
# Assay in all cases: mass photometry
# [1] = target: T1, full-length dynein complex AAA3^WA (dynein-K2424A) (yeast, UniProt P36022 1-4092; P40960 1-533; Q04949 1-312; Q02647 1-92, K2424A)
# T1 sequence (P36022 whole entry K2424A, chain 1 of 4): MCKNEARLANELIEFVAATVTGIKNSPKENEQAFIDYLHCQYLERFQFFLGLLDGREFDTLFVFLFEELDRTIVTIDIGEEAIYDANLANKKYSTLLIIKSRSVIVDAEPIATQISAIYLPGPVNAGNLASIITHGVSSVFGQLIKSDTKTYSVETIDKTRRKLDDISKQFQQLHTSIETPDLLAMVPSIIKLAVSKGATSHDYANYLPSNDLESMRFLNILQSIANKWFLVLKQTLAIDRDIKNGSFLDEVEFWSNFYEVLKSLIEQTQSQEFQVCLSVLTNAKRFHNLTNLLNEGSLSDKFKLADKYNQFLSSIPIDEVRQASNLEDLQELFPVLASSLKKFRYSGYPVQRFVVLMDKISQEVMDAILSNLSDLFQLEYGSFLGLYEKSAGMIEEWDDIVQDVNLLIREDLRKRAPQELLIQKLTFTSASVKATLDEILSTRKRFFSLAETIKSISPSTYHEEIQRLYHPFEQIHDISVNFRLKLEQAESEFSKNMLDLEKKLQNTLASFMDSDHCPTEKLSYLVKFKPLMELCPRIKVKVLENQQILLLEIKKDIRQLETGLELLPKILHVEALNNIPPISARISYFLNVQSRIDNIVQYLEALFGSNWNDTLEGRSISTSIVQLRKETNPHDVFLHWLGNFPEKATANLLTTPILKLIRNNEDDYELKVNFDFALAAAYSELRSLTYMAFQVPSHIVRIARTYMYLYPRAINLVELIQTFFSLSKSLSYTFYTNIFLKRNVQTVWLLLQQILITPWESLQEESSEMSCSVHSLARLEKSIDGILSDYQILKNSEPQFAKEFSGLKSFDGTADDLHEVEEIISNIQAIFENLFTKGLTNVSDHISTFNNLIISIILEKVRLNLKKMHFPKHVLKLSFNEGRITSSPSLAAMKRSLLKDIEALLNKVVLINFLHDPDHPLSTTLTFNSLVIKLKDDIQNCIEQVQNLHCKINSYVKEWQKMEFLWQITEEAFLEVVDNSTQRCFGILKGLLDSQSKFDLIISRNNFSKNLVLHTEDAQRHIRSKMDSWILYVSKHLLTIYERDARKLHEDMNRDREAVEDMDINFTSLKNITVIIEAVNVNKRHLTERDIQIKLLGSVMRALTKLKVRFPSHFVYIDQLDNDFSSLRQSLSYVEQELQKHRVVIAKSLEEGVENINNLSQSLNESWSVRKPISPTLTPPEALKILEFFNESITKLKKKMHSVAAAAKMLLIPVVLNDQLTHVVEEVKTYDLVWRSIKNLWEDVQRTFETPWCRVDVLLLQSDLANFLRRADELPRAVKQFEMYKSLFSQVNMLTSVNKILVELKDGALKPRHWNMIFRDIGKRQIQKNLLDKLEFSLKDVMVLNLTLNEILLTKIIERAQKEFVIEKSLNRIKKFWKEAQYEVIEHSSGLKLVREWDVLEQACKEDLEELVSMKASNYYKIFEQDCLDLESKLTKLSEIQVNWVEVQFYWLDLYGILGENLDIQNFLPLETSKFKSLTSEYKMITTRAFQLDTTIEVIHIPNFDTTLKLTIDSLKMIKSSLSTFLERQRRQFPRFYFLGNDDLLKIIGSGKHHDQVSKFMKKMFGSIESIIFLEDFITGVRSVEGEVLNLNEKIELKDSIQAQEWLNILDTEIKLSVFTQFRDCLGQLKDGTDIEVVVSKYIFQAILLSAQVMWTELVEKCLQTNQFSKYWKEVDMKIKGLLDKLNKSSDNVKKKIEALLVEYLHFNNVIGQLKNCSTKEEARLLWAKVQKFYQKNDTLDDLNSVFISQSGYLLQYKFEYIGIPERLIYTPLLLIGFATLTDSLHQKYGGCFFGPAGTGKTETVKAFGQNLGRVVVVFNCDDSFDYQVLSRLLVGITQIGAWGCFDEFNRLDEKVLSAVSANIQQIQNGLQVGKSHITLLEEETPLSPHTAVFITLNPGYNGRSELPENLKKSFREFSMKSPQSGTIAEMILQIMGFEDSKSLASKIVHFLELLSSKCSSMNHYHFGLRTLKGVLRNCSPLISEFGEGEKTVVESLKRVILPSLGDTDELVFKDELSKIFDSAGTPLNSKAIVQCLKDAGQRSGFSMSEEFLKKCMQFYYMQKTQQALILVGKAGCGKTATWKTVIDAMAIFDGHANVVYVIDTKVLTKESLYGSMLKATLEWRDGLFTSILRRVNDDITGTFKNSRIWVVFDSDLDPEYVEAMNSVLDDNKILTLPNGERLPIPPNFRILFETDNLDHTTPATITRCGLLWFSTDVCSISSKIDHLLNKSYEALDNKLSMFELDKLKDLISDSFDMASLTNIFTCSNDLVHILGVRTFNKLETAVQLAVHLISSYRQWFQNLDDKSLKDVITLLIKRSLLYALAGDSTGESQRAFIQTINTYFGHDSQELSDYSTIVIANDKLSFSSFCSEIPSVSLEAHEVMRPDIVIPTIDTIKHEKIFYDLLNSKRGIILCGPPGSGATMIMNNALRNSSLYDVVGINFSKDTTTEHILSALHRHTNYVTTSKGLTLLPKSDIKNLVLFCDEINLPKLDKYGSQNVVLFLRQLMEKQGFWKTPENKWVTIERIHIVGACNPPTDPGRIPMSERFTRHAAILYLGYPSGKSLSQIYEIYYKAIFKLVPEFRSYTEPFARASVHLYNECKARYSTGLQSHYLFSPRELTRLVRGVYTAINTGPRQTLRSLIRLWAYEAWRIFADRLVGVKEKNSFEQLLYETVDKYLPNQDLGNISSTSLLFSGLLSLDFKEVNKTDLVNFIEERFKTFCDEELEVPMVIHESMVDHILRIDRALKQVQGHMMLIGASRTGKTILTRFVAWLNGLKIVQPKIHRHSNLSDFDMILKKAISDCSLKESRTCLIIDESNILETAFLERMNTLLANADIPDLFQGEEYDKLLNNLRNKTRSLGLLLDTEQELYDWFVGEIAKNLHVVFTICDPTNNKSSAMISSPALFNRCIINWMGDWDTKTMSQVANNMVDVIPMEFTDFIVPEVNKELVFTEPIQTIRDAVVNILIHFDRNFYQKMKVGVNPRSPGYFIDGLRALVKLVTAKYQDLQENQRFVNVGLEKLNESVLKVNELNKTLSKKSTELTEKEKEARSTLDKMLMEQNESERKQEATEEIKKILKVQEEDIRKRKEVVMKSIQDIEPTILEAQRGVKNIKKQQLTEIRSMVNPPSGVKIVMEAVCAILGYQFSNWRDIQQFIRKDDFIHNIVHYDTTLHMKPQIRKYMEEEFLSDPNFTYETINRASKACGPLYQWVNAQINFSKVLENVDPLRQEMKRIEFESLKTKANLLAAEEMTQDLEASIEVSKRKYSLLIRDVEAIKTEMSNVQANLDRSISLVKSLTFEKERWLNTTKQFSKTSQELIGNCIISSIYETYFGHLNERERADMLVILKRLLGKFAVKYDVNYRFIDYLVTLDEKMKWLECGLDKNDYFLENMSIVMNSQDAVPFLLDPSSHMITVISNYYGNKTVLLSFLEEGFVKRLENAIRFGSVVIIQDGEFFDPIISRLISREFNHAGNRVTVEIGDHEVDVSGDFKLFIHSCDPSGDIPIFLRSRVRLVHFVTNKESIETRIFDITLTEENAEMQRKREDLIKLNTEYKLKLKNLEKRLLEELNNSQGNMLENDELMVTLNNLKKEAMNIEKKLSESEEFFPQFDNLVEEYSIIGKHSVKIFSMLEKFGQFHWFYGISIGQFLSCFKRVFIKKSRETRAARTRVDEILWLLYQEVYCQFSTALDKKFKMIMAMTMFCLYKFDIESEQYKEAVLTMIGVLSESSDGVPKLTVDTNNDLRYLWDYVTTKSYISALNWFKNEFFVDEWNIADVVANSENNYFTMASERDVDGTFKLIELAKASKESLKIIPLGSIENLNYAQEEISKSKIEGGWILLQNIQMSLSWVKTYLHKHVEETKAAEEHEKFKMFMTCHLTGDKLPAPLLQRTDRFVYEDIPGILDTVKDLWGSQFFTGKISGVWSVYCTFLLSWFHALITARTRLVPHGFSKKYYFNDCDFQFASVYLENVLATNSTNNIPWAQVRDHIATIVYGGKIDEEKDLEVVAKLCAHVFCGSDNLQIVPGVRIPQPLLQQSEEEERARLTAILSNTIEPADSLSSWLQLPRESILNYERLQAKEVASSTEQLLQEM
# T1 sequence (P40960 whole entry, chain 2 of 4): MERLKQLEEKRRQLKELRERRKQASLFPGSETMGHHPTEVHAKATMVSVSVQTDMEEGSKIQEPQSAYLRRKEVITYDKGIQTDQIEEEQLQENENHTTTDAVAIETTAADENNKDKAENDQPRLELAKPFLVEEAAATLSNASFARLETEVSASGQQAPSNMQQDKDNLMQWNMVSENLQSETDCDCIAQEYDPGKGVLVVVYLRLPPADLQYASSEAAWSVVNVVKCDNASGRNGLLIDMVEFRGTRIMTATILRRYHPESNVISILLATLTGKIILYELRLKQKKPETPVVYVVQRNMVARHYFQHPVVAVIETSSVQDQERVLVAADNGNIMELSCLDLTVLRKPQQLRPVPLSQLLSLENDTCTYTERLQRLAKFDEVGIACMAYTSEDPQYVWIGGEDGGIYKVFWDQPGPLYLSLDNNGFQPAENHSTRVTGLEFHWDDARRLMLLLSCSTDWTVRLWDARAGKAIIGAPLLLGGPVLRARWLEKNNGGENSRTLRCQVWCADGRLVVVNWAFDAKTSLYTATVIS
# T1 sequence (Q04949 whole entry, chain 3 of 4): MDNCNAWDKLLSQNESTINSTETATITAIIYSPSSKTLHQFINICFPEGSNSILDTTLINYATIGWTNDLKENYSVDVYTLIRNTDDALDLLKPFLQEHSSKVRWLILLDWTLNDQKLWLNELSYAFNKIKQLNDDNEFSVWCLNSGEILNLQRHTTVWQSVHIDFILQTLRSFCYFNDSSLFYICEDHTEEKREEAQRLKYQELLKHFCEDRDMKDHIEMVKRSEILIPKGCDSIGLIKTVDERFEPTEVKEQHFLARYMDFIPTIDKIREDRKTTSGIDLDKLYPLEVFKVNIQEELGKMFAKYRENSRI
# T1 sequence (Q02647 whole entry, chain 4 of 4): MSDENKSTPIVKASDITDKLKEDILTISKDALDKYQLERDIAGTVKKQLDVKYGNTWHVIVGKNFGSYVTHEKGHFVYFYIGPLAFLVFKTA
# [2] = target: full-length dynein complex AAA3^WB (E2488Q) (yeast, UniProt P36022 1-4092; P40960 1-533; Q04949 1-312; Q02647 1-92, E2488Q)
# [3] = target: T1, full-length dynein complex AAA3^WA …; remark: listed apart in the source
# [4] = target: T1, full-length dynein complex AAA3^WA …; remark: listed apart in the source
binder,measurement,setting,value
B1,stoichiometry N,[1],1 Pac1 dimer per dynein complex
same,stoichiometry N,[2],1 Pac1 dimer per dynein complex and 2 Pac1 dimers per dynein complex
same,stoichiometry N,[3],2 Pac1 dimers per dynein complex
B2,binding result,[4],binds
